We go through 2 substances from article PMC7877763.

Assay [1] has as its target GPR-foldon (foldon stabilized collagen model peptide containing a (GPP)5GPR(GPP)6 collagen sequence). The assay can be described thus: BLI; biotinylated GPR-foldon immobilised on streptavidin biosensors, blocked with 10 uM biocytin; HSP47 in solution; 50 mM Tris, 150 mM NaCl, pH 7.5 (TBS); kon and koff fitted with a 1:1 Langmuir model, KD = koff/kon.
For assay [2] the target is unchanged. The assay can be described thus: ELISA; ELISA-like binding assay; type I collagen from rat tail coated at 10 ug/mL on MaxiSorp plates (coating of GPR-foldon not described); His-tagged HSP47 at 1.2 to 5,000 nM in solution; detected with HRP-coupled anti-His antibody; four-parameter logistic fit.

With “recombinant canine HSP47-R222S (from UniProt C7C419 36-418) (natural protein)”, the Kd in assay [1] turned out to be 11500 nM; in assay [2], 1500 nM.
In the same order, the values of “recombinant wild-type canine HSP47 (from UniProt C7C419 36-418) (natural protein)” are 409 nM and 56 nM.
